Reference: patent US20190256864A1 (INDIANA UNIVERSITY RESEARCH AND TECHNOLOGY, published 2019)

What was measured:
GmPBS1a = target: T1, GmPBS1a
T1 chain: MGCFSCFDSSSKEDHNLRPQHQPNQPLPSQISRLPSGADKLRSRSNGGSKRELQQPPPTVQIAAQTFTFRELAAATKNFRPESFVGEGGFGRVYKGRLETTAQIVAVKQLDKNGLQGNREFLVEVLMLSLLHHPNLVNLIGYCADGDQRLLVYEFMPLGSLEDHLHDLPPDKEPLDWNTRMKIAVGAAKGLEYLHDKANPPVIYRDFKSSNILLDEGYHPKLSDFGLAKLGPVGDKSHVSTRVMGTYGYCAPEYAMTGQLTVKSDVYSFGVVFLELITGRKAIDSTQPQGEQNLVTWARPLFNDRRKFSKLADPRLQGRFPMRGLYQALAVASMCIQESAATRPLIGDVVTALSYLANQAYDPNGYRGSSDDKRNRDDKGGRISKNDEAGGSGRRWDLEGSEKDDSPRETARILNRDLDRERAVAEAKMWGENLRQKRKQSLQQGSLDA

AtPBS1:HA = target: T2, AtPBS1:HA
T2 chain: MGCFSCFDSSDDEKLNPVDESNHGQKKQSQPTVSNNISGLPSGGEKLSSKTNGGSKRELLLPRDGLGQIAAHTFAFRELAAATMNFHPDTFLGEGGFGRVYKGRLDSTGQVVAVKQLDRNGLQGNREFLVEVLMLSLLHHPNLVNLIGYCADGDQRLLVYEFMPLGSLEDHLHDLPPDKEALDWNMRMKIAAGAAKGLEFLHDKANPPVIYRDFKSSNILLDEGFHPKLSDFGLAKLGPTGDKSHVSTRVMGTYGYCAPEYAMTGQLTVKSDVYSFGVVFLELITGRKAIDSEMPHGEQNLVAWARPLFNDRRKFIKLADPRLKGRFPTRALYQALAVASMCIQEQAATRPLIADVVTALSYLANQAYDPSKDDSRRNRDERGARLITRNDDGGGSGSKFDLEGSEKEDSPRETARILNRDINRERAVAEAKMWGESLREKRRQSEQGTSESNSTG

GmPBS1b = target: T3, GmPBS1b
T3 chain: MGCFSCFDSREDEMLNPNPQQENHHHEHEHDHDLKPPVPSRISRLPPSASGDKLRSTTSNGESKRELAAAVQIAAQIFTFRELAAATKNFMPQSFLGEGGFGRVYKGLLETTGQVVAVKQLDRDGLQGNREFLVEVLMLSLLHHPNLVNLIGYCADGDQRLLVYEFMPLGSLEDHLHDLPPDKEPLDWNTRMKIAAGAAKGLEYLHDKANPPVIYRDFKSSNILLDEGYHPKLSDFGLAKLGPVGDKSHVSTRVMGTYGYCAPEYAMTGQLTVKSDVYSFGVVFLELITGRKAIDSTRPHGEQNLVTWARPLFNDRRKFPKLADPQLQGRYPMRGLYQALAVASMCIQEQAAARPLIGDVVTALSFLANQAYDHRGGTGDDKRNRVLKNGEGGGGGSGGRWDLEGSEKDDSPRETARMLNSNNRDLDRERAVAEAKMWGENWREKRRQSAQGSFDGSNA

HvPBS1-1:HA = target: T4, HvPBS1-1:HA
T4 chain: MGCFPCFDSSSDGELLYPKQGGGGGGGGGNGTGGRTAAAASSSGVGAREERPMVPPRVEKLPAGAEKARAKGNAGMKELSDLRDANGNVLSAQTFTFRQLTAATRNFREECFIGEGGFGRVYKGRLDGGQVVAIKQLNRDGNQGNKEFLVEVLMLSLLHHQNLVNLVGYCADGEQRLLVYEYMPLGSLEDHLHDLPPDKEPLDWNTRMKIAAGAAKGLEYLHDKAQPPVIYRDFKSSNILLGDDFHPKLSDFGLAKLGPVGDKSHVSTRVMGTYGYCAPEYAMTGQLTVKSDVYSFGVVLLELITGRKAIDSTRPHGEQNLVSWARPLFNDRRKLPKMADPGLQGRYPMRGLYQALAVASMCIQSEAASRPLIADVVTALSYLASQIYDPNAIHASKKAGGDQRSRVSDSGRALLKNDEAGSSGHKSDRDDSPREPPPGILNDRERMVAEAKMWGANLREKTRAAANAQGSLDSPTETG

GmPBS1c = target: T5, GmPBS1c
T5 chain: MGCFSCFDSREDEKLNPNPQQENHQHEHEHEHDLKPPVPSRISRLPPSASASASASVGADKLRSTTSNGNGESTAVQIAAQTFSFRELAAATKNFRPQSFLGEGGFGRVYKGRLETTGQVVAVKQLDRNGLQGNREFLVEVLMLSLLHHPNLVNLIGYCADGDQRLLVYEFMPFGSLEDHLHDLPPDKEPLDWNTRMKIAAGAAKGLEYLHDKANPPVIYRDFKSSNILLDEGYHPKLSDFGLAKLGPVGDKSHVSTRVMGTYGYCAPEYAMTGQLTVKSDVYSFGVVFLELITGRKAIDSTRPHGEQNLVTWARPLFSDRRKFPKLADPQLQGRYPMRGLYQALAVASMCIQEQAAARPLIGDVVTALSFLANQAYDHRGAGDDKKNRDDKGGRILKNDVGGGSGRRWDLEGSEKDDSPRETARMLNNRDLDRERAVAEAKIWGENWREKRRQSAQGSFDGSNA

HvPBS1-2:HA = target: T6, HvPBS1-2:HA
T6 chain: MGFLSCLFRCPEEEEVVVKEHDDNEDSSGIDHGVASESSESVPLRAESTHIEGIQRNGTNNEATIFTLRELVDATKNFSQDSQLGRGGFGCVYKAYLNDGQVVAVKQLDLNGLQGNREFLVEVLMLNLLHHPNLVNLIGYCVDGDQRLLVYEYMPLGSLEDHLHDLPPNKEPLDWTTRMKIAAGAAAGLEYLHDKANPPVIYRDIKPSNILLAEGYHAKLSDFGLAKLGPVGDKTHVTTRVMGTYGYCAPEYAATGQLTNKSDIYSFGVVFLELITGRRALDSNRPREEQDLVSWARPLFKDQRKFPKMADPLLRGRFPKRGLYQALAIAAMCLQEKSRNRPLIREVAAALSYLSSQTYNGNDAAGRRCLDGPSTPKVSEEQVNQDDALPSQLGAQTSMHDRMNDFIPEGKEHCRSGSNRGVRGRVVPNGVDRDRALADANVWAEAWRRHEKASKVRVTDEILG

B1: AvrPphB:myc (protein)
chain: MKIGTQATSLAVLHNQESHAPQAPIAVRPEPAHAIPEIPLDLAIRPRTRGIHPFLAMTLGDKGCASSSGVSLEDDSHTQVSLSDFSVASRDVNHNNICAGLSTEWLVMSSDGDAESRMDHLDYNGEGQSRGSERHQVYNDALRAALSNDDEAPFFTASTAVIEDAGFSLRREPKTVHASGGSAQLGQTVAHDVAQSGRKHLLSLRFANVQGHAIACSCEGSQFKLFDPNLGEFQSSRSAAPQLIKGLIDHYNSLNYDVACVNEFRVS
- cleavage of the substrate (GmPBS1a): AvrPphB induces cleavage of all three soybean PBS1 proteins
- cleavage of the substrate (immunoblot after transient co-expression in N. benthamiana) (NbPBS1:HA): Co-expression with AvrPphB:myc, but not the protease inactive mutant, resulted in cleavage of NbPBS1:HA within 6 hours post-transgene expression
- cleavage of the substrate (immunoblot after co-expression in N. benthamiana) (AtPBS1:HA): immunoblots showing cleavage of PBS1 proteins from Arabidopsis (At), soybean (Gm) and barley (Hv) by AvrPphB
- cleavage of the substrate (GmPBS1b): AvrPphB induces cleavage of all three soybean PBS1 proteins
- cleavage of the substrate (Western blot after transient co-expression in N. benthamiana) (HvPBS1-1:HA): HvPBS1-1:HA and HvPBS1-2:HA are each cleaved by AvrPphB:myc
- cleavage of the substrate (GmPBS1c): AvrPphB induces cleavage of all three soybean PBS1 proteins
- cleavage of the substrate (Western blot after transient co-expression in N. benthamiana) (HvPBS1-2:HA): HvPBS1-1:HA and HvPBS1-2:HA are each cleaved by AvrPphB:myc
